From US20200317779A1 (GREEN CROSS, published 2020)
Numbering of substitutions follows the chain as printed.

B1: H16 (antibody, human IgG1, lambda, L234A L235A, V domains shown)
VH: EVQLVESGGGLVQPGGSLKLSCAASGFTFNTYAMNWVRQASGKGLEWVARIRSKYNNYATYYADSVKDRFTISRDDSQSTLYLQMNSLKTEDTAVYYCVRHGNFGNSYVSWFAYWGQGTLVTVSS
VL: QAVVTQEPSLTVSPGGTVTLTCRSSTGAVTTSNYANWVQQKPGQAPRGLIGGTNKRAPWTPARFSGSLLGDKAALTLSGAQPEDEAEYYCALWYSNLWVFGGGTKLTVLG
notes: humanized SP34 IgG1, lambda
B2: A08 (antibody, human IgG1, lambda, L234A L235A, V domains shown)
VH: B1 VH with A49G, Q78K, S79N, L81A
VL: B1 VL with V38F
notes: humanized SP34 IgG1, lambda; also called A8
B3: E16 (antibody, human IgG1, lambda, L234A L235A, V domains shown)
VH: B1 VH with Q78K, S79N, L81A
VL: B1 VL
notes: humanized SP34 IgG1, lambda
B4: G16 (antibody, human IgG1, lambda, L234A L235A, V domains shown)
VH: B1 VH with L81A
VL: B1 VL
notes: humanized SP34 IgG1, lambda
B5: C07 (antibody, human IgG1, lambda, L234A L235A, V domains shown)
VH: B1 VH with A49G, L81A
VL: B1 VL with V38F, D71G
notes: humanized SP34 IgG1, lambda; also called C7
B6: A07 (antibody, human IgG1, lambda, L234A L235A, V domains shown)
VH: B1 VH with A49G, Q78K, S79N, L81A
VL: B1 VL with V38F, D71G
notes: humanized SP34 IgG1, lambda; also called A7
B7: C08 (antibody, human IgG1, lambda, L234A L235A, V domains shown)
VH: B1 VH with A49G, L81A
VL: B1 VL with V38F
notes: humanized SP34 IgG1, lambda; also called C8
B8: Mouse human chimeric SP34 IgG1 antibody (antibody, V domains shown)
VH: B1 VH with G15K, S41P, T80I, S87N, V95M
VL: QAVVTQESALTTSPGETVTLTCRSSTGAVTTSNYANWVQEKPDHLFTGLIGGTNKRAPGVPARFSGSLIGDKAALTITGAQTEDEAIYFCALWYSNLWVFGGGTKLTVLG
B9: A16 (antibody, human IgG1, lambda, L234A L235A, V domains shown)
VH: B1 VH with A49G, Q78K, S79N, L81A
VL: B1 VL
notes: humanized SP34 IgG1, lambda
B10: E15 (antibody, human IgG1, lambda, L234A L235A, V domains shown)
VH: B1 VH with Q78K, S79N, L81A
VL: B1 VL with D71G
notes: humanized SP34 IgG1, lambda
B11: G15 (antibody, human IgG1, lambda, L234A L235A, V domains shown)
VH: B1 VH with L81A
VL: B1 VL with D71G
notes: humanized SP34 IgG1, lambda
B12: D07 (antibody, human IgG1, lambda, L234A L235A, V domains shown)
VH: B1 VH with A49G
VL: B1 VL with V38F, D71G
notes: humanized SP34 IgG1, lambda; also called D7
B13: D15 (antibody, human IgG1, lambda, L234A L235A, V domains shown)
VH: B1 VH with A49G
VL: B1 VL with D71G
notes: humanized SP34 IgG1, lambda
B14: C15 (antibody, human IgG1, lambda, L234A L235A, V domains shown)
VH: B1 VH with A49G, L81A
VL: B1 VL with D71G
notes: humanized SP34 IgG1, lambda
B15: B15 (antibody, human IgG1, lambda, L234A L235A, V domains shown)
VH: B1 VH with A49G, Q78K, S79N
VL: B1 VL with D71G
notes: humanized SP34 IgG1, lambda
B16: F15 (antibody, human IgG1, lambda, L234A L235A, V domains shown)
VH: B1 VH with Q78K, S79N
VL: B1 VL with D71G
notes: humanized SP34 IgG1, lambda
B17: B08 (antibody, human IgG1, lambda, L234A L235A, V domains shown)
VH: B1 VH with A49G, Q78K, S79N
VL: B1 VL with V38F
notes: humanized SP34 IgG1, lambda; also called B8
B18: F16 (antibody, human IgG1, lambda, L234A L235A, V domains shown)
VH: B1 VH with Q78K, S79N
VL: B1 VL
notes: humanized SP34 IgG1, lambda
B19: D16 (antibody, human IgG1, lambda, L234A L235A, V domains shown)
VH: B1 VH with A49G
VL: B1 VL
notes: humanized SP34 IgG1, lambda
B20: H15 (antibody, human IgG1, lambda, L234A L235A, V domains shown)
VH: B1 VH
VL: B1 VL with D71G
notes: humanized SP34 IgG1, lambda
B21: A15 (antibody, human IgG1, lambda, L234A L235A, V domains shown)
VH: B1 VH with A49G, Q78K, S79N, L81A
VL: B1 VL with D71G
notes: humanized SP34 IgG1, lambda
B22: B07 (antibody, human IgG1, lambda, L234A L235A, V domains shown)
VH: B1 VH with A49G, Q78K, S79N
VL: B1 VL with V38F, D71G
notes: humanized SP34 IgG1, lambda; also called B7
B23: B16 (antibody, human IgG1, lambda, L234A L235A, V domains shown)
VH: B1 VH with A49G, Q78K, S79N
VL: B1 VL
notes: humanized SP34 IgG1, lambda
B24: D08 (antibody, human IgG1, lambda, L234A L235A, V domains shown)
VH: B1 VH with A49G
VL: B1 VL with V38F
notes: humanized SP34 IgG1, lambda; also called D8
B25: C16 (antibody, human IgG1, lambda, L234A L235A, V domains shown)
VH: B1 VH with A49G, L81A
VL: B1 VL
notes: humanized SP34 IgG1, lambda

Molecular target: T1, CD3 on monkey T cells (monkey splenocytes) (monkey)
T1 construct: whole, on cells; The target is printed as 'monkey T cells'
Assay: flow cytometry on monkey splenocytes, 1 µg antibody per 10^6 cells in 100 µl, PE anti-human IgG detection
Description: Specifically, monkey splenocytes were prepared at 10⁶ cells in 100 μl FACS solution per antibody sample, and then 1 μg of antibody was used to treat the cells. The resultant was stored for 25 minutes in the dark at 4° C. Subsequently, treatment with 3 ml of FACS buffer was performed, and centrifugation was performed at 2,000 rpm for 3 minutes. Then, the supernatant was discarded.
(§1) Next, 100 μl FACS buffer containing 1 μg of PE-conjugated human IgG antibody was used to treat the cells, and the resultant was stored for 25 minutes in the dark at 4° C. Subsequently, treatment with 3 ml of FACS buffer was performed, and centrifugation was performed at 2,000 rpm for 3 minutes. Then, the supernatant was discarded.
(§2) The cells were treated with a 4% formaldehyde solution, stored in the dark at 4° C. for 30 minutes, and then treated with 3 ml of FACS buffer. Centrifugation was performed at 2,000 rpm for 3 minutes, and then the supernatant was discarded. Treatment with 350 μl of FACS buffer was performed, and a flow cytometer was used to perform affinity analysis of the antibodies for the […]. The analysis results are illustrated in FIG. 2.

Row | Binder | Mean : Comp-PE-A
1 | B1 | 13400
2 | B2 | 5530
3 | B3 | 13900
4 | B4 | 14000
5 | B5 | 5380
6 | B6 | 6680
7 | B7 | 5670
8 | B8 | 19800
9 | B9 | 17600
10 | B10 | 13500
11 | B11 | 17300
12 | B12 | 6760
13 | B13 | 18600
14 | B14 | 17800
15 | B15 | 16300
16 | B16 | 14700
17 | B17 | 4590
18 | B18 | 11900
19 | B19 | 18600
20 | B20 | 16700
21 | B21 | 15800
22 | B22 | 4790
23 | B23 | 17200
24 | B24 | 5120
25 | B25 | 12100

Molecular target: T2, CD3 on human T cells (H9 cells, ATCC HTB-176) (human)
T2 construct: whole, on cells; The target is printed as 'human T cells'
Assay: flow cytometry on H9 cells, 1 µg antibody per 2x10^5 cells in 100 µl, PE anti-human IgG detection
Description: The resultant was stored for 25 minutes in the dark at 4° C. Subsequently, treatment with 3 ml of FACS buffer was performed, and centrifugation was performed at 2,000 rpm for 3 minutes. Then, the supernatant was discarded.
as §1, with “phycoerythrin (PE)-conjugated” for “PE-conjugated”
as §2, with “1.” for “2.”

T2 sequence (P07766 23-207, chain 1 of 3): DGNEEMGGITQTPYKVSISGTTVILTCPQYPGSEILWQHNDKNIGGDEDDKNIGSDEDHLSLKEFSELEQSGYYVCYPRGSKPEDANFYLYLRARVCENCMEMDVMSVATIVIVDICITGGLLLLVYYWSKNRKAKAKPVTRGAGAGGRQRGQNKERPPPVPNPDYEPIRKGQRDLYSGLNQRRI
T2 sequence (P04234 22-171, chain 2 of 3, further chain): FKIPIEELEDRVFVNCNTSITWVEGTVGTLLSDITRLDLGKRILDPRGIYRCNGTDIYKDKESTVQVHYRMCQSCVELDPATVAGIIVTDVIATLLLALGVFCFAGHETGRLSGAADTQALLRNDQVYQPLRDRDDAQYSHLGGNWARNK
T2 sequence (P09693 23-182, chain 3 of 3, further chain): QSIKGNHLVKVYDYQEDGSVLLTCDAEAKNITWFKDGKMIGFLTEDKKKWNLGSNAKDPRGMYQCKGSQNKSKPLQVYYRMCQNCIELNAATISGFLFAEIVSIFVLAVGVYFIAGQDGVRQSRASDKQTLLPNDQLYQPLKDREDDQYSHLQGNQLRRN

Row | Binder | Mean : PE-A
26 | B1 | 9350
27 | B2 | 3080
28 | B3 | 11100
29 | B4 | 10300
30 | B5 | 4620
31 | B6 | 4310
32 | B7 | 4680
33 | B9 | 16700
34 | B10 | 12800
35 | B11 | 11600
36 | B12 | 3770
37 | B13 | 22600
38 | B14 | 23100
39 | B15 | 22900
40 | B16 | 11200
41 | B17 | 3780
42 | B18 | 9530
43 | B19 | 18300
44 | B20 | 9620
45 | B21 | 24000
46 | B22 | 4810
47 | B23 | 16800
48 | B24 | 4220
49 | B25 | 17700
